Data: article PMC10632424, “Low-noise fluorescent detection of cardiac troponin I in human serum based on surface acoustic wave separation”

Tests used:
C-reactive protein (CRP) = target: T1, C-reactive protein (CRP) (UniProt P02741 19-224); assay: fluorescence recovery by displacement of AuNP-ssDNA (bead-immobilized probe); 20 ng/mL; negligible response; PBS pH 7.2, 30 min shaking, temperature not stated; probe folded in 1 mM MgCl2, 1x PBS pH 7.2; serum diluted 10x in PBS; conditions: protein: commercial; chain copies: 5; label: Texas Red; gold nanoparticle quencher; biotin on streptavidin PS beads; S2 pairs with S1[6-23]; S1 overhangs 5' 5 nt and 3' 17 nt
T1 sequence: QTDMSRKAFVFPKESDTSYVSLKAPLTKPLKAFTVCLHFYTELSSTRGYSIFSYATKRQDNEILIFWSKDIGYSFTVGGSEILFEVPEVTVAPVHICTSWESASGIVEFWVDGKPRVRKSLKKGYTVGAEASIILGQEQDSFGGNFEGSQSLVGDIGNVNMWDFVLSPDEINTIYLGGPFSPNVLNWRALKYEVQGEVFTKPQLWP

myoglobin (MYO) = target: T2, myoglobin (MYO) (UniProt P02144 2-154); assay: as above; conditions: protein: commercial; label: Texas Red; gold nanoparticle quencher; biotin on streptavidin PS beads; S2 pairs with S1[6-23]; S1 overhangs 5' 5 nt and 3' 17 nt
T2 sequence: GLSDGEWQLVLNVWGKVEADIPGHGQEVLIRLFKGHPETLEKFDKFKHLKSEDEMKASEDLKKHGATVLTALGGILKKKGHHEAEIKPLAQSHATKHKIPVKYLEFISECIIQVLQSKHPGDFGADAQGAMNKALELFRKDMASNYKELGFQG

[1] = target: cardiac troponin I (cTnI) (human, UniProt P19429 2-210); assay: fluorescence recovery by displacement of AuNP-ssDNA (bead-immobilized probe); PBS, cTnI 0.2-60 ng/mL; LOD 44 pg/mL; PBS pH 7.2, 30 min shaking, temperature not stated; probe folded in 1 mM MgCl2, 1x PBS pH 7.2; serum diluted 10x in PBS; conditions: protein: commercial; label: Texas Red; gold nanoparticle quencher; biotin on streptavidin PS beads; S2 pairs with S1[6-23]; S1 overhangs 5' 5 nt and 3' 17 nt
Chain of cardiac troponin I (cTnI) (P19429 2-210): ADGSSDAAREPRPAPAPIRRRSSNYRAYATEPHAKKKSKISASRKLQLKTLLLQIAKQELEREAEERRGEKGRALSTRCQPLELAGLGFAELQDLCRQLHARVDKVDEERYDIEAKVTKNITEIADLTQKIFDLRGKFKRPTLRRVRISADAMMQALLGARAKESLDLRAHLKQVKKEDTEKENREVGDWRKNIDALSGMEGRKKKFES

B1: cTnI aptamer probe hybridized with AuNP-ssDNA (mixed)
DNA 1: CGTGCAGTACGCCAACCTTTCTCATGCGCTGCCCCTCTTA
DNA 2: GAGAAAGGTTGGCGTACT
modifications: 5'-biotin and 3'-Texas Red on S1; 5' SH-C6 on S2 (gold nanoparticle)
- binding result (C-reactive protein (CRP)): no binding
- binding result (myoglobin (MYO)): no binding
- binding result [1]: binds
